Reference: patent publication US7462701

Target: T1, Gly-Asp-Asp-Asp-Asp-Lys-β-naphthylamide
T1 chain: GDDDDK

B1: CBM-enterokinase produced transiently in lettuce and purified on cellulose (protein)
chain: MVATAKYGTPVIDGEIDEIWNTTEEIETKAVAMGSLDKNATAKVRVLWDENYLYVLAIVKDPVLNKDNSNPWEQDSVEIFIDENNHKTGYYEDDDAQFRVNYMNEQTFGTGGSPARFKTAVKLIEGGYIVEAAIKWKTIKPTPNTVIGFNIQVNDANEKGQRVGIISWSDPTNNSWRDPSKFGNLRLIK
Enterokinase activity (rate of β-naphthylamine formation): Enterokinase activity was measured to be 442.7 cps/min/µg compared to blank 0.0001 cps/min/µg
